Here are results for 30 sequences from the Immune Epitope Database (IEDB).

Assay [1] has as its target HLA-B*40:01. The experiment in a line: IEDB peptide-MHC binding, purified MHC/competitive/radioactivity; filed as Kd, often an IC50 or EC50 that approximates it; ≥ and ≤ were set here for values at or beyond the usual limits of such assays.
Assay [2] concerns the target HLA-A*01:01. The description is as above.
For assay [3], the target named is HLA-B*15:01. Described as above.
Assay [4] addresses HLA-A*30:02. Described as above.
In assay [5] the target is HLA-A*02:01. Briefly: IEDB peptide-MHC binding, purified MHC/competitive/fluorescence; ≥ and ≤ were set here for values at or beyond the usual limits of such assays.
The target in assay [6] is HLA-A*24:02. The assay is described as above.
The target in assay [7] is HLA-B*15:01. The experiment in a line: IEDB peptide-MHC binding, purified MHC/competitive/fluorescence; filed as Kd, often an IC50 or EC50 that approximates it; ≥ and ≤ were set here for values at or beyond the usual limits of such assays.
Assay [8] deals with HLA-B*35:01. The experiment in a line: IEDB peptide-MHC binding, purified MHC/competitive/radioactivity; filed as Kd, often an IC50 or EC50 that approximates it; ≥ and ≤ were set here for values at or beyond the usual limits of such assays.
Assay [9] concerns the target HLA-A*29:02. The description is as above.
Assay [10] has as its target HLA-A*32:01. The assay is described as above. The conditions noted are these: source organism: Mammarenavirus juninense.
Assay [11] deals with HLA-A*30:01. The assay is described as above. As to conditions: source organism: Mammarenavirus juninense.
The target of assay [12] is HLA-A*26:01. Briefly: IEDB peptide-MHC binding, purified MHC/direct/fluorescence; filed as Kd, often an IC50 or EC50 that approximates it; ≥ and ≤ were set here for values at or beyond the usual limits of such assays. As to conditions: source organism: Mammarenavirus juninense.
The target of assay [13] is HLA-B*44:03. Briefly: IEDB peptide-MHC binding, purified MHC/competitive/radioactivity; filed as Kd, often an IC50 or EC50 that approximates it; ≥ and ≤ were set here for values at or beyond the usual limits of such assays. As to conditions: source organism: Dengue virus 4 Philippines/H241/1956.
Assay [14] has as its target HLA-B*44:02. The description is as above. The conditions noted are these: source organism: Dengue virus 3 Singapore/8120/1995.
Assay [15] addresses HLA-A*26:01. The assay is described as above.
Assay [16] addresses HLA-A*23:01. The description is as above.
In assay [17] the target is HLA-A*24:02. The assay is described as above.
The target of assay [18] is HLA-B*08:01. The assay is described as above. The conditions noted are these: source organism: Vaccinia virus WR.
In assay [19] the target is HLA-B*39:01. The experiment in a line: IEDB peptide-MHC binding, purified MHC/competitive/fluorescence; filed as Kd, often an IC50 or EC50 that approximates it; ≥ and ≤ were set here for values at or beyond the usual limits of such assays. As to conditions: source organism: Escherichia coli.
Assay [20] addresses HLA-B*51:01. Briefly: IEDB peptide-MHC binding, purified MHC/competitive/radioactivity; filed as Kd, often an IC50 or EC50 that approximates it; ≥ and ≤ were set here for values at or beyond the usual limits of such assays. The conditions noted are these: source organism: Dengue virus 1 Brazil/97-11/1997.
The mark [21] stands for this setting: source organism: Dengue virus 2 Peru/IQT2913/1996.
Setting [22] is: source organism: Zaire ebolavirus.
The mark [23] stands for this setting: source organism: Vaccinia virus WR.
Setting [24] is: source organism: Dengue virus 4 Philippines/H241/1956.
Where [25] appears, read: source organism: Vaccinia virus Copenhagen.
The mark [26] stands for this setting: source organism: Mammarenavirus juninense.
The mark [27] stands for this setting: source organism: Dengue virus 2 Jamaica/1409/1983.
Where [28] appears, read: source organism: Mammarenavirus guanaritoense.
The mark [29] stands for this setting: source organism: Vaccinia virus.
[30] abbreviates: source organism: SARS coronavirus Tor2.

As usually defined, the Kd is the constant that tells how readily two partners part at equilibrium. With LECSPRTGL, the dissociation constant Kd in assay [1] (source organism: Dengue virus 3 Martinique/1243/1999) came to 599 nM.
In the case of FTMRHKKATY, the Kd in [2] (setting [21]) is 1260 nM; in assay [3] (setting [21]) it was 138 nM; in assay [4] (setting [21]), not below 43400 nM.
The IC50 is the concentration that inhibits the measured activity by half. Consider LIWKVNPEI, for which the IC50 came to 426 nM in assay [5] (setting [22]) and 1310 nM in [6] (setting [22]).
FIFNIIMSF: the Kd in assay [3] (setting [23]) came out at 399 nM.
As for GMMDGWYGF, the Kd in assay [7] (source organism: Influenza A virus (A/Queensland/11/2001(H3N2))) amounted to 21.9 nM.
Turning to IIIPFIAYF, the Kd in [3] (setting [23]) came out at 1.59 nM.
Regarding REPVNATED, the half-inhibitory concentration (IC50) is not below 383000 nM in assay [5] (setting [22]) and 12700 nM in assay [6] (setting [22]).
In the same order, the values of SADSFLLML are not below 613000 nM and not below 177000 nM.
Consider MGLNYKLTF, for which the Kd in assay [3] (setting [23]) turned out to be 3540 nM.
For MAVLFVVTL, the equilibrium dissociation constant (Kd) in [8] (setting [24]) worked out at 359 nM.
Consider LLHRCIYHY, for which, in assay [3] (setting [23]), the Kd amounted to 42.9 nM.
For the sequence VLYSYILFL, the dissociation constant (Kd) in assay [3] (setting [25]) was found to be 559 nM.
In the case of ELGNILSVY, the equilibrium dissociation constant (Kd) in [2] (setting [26]) was 16500 nM; in assay [9] (setting [26]), 11000 nM; in [10], not below 77800 nM; in assay [4] (setting [26]), 4.02 nM; in assay [11], 11000 nM; in assay [12], 16.5 nM.
As for FGAQHSTTL, the half-maximal inhibitory concentration (IC50) in assay [6] (source organism: Sudan ebolavirus) came to 60500 nM.
As for WHYDQDHPY, the Kd in assay [8] (setting [27]) is 7590 nM; in [4] (setting [27]), not below 39300 nM.
As to RIKQRGILGY, the Kd worked out at 46.6 nM in assay [3] (setting [27]) and 20.4 nM in [4] (setting [27]).
As for AETQHGTTV, the dissociation constant (Kd) turned out to be 20.8 nM in assay [1] (setting [24]) and 1460 nM in assay [13].
As for LEKASFIEV, the values for the Kd in [14] and in assay [1] (source organism: Dengue virus 3 Singapore/8120/1995) were 9570 nM and 1040 nM, respectively.
TDSPETHHY: the equilibrium dissociation constant (Kd) is 16800 nM in assay [2] (setting [28]); not below 78900 nM in [9] (setting [28]); not below 77900 nM in assay [15] (setting [28]); not below 77700 nM in assay [16] (setting [28]); not below 77500 nM in assay [17] (setting [28]); 9320 nM in assay [4] (setting [28]).
On to KVSCSMLEF, for which, in assay [3] (setting [25]), the dissociation constant Kd is 0.84 nM.
For ESKMSFLPI, the equilibrium dissociation constant (Kd) was 358 nM in [3] (setting [23]) and 1.06 nM in assay [18].
As for RHSDTAKAF, the Kd in [7] (source organism: Escherichia coli) was not below 20000 nM; in assay [19], 268 nM.
Take EGIYIEGLM: the IC50 in [6] (setting [22]) was not below 154000 nM.
Turning to KPWDVIPMV, in assay [20], the Kd was 1110 nM.
In assay [6] (source organism: West Nile virus), IMSKDKPTI registered an IC50 of 1980 nM.
In the case of ATNLEYKTL, the IC50 is not below 85800 nM in assay [5] (setting [29]) and 43600 nM in [6] (setting [29]).
As to MADQAMTQMY, the Kd in [2] (setting [30]) is 18.4 nM; in assay [9] (setting [30]), 9.75 nM; in assay [15] (setting [30]), 2830 nM; in assay [16] (setting [30]), not below 70000 nM; in assay [17] (setting [30]) it was not below 70300 nM; in assay [4] (setting [30]) it was 127 nM.
Turning to IDFLLQRWG, the IC50 in assay [5] (setting [22]) was not below 134000 nM; in assay [6] (setting [22]) it was 68400 nM.
For the sequence LANFLCLLM, the dissociation constant (Kd) in assay [3] (setting [23]) was found to be 1310 nM.
As to KVSIYKTHI, the dissociation constant Kd in assay [3] (setting [23]) amounted to 1460 nM.
